Experimental findings from patent publication US20230235012A1 (ALPINE IMMUNE SCIENCES, published 2023) are described below.

Test [1] addresses T1, human CTLA-4, full-length, expressed on transfected Expi293 cells (human, UniProt P16410 36-223).
T1 construct: whole, on cells
The experiment in a line: flow cytometry, 100 nM, Expi293 cells with human CTLA-4. (A flow cytometer gives signals particle by particle.)

Test [2] has as its target T2, human CD28, full-length, expressed on transfected Expi293 cells (human, UniProt P10747 19-220).
T2 construct: whole, on cells
The experiment in a line: flow cytometry, 100 nM, Expi293 cells with human CD28.

Test [3] has as its target T3, human ICOS, full-length, expressed on transfected Expi293 cells (human, UniProt Q9Y6W8 21-199).
T3 construct: whole, on cells
T3 sequence (looked up): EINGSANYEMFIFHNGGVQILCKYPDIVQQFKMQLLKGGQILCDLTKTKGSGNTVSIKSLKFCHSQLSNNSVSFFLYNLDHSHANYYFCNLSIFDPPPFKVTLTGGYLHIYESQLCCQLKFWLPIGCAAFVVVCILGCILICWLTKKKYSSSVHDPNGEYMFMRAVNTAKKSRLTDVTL
The experiment in a line: flow cytometry, 100 nM, Expi293 cells with human ICOS.

T1 sequence (P16410 36-223): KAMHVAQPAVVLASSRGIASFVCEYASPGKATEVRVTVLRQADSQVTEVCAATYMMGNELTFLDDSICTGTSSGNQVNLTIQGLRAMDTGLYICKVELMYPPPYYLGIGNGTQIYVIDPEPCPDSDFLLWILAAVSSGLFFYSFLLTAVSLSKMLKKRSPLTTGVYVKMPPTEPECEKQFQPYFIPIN

B1: wild-type ICOSL IgV-Fc fusion (Fc fusion)
chain: DTQEKEVRAMVGSDVELSCACPEGSRFDLNDVYVYWQTSESKTVVTYHIPQNSSLENVDSRYRNRALMSPAGMLRGDFSLRLFNVTPQDEQKFHCLVLSQSLGFQEVLSVEVTLHVAANFSVGSGGGGSEPKSSDKTHTCPPCPAPEAEGAPSVFLFPPKPKDTLMISRTPEVTCVVVDVSHEDPEVKFNWYVDGVEVHNAKTKPREEQYNSTYRVVSVLTVLHQDWLNGKEYKCKVSNKALPAPIEKTISKAKGQPREPQVYTLPPSREEMTKNQVSLTCLVKGFYPSDIAVEWESNGQPENNYKTTPPVLDSDGSFFLYSKLTVDKSRWQQGNVFSCSVMHEALHNHYTQKSLSLSPG
notes: also called WT ICOSL
For the molecule B1, the figures for the MFI in test [1], in test [2] and in test [3] were 330000 MFI, 22300 MFI and 212000 MFI, respectively. The “MFI ratio to WT (ΔWT)” value in test [1], in test [2] and in test [3] was 1 fold in each case.

B2: variant ICOSL IgV-Fc fusion N52V/N57L/Q100A (Fc fusion)
chain: DTQEKEVRAMVGSDVELSCACPEGSRFDLNDVYVYWQTSESKTVVTYHIPQVSSLELVDSRYRNRALMSPAGMLRGDFSLRLFNVTPQDEQKFHCLVLSASLGFQEVLSVEVTLHVAANFSVGSGGGGSEPKSSDKTHTCPPCPAPEAEGAPSVFLFPPKPKDTLMISRTPEVTCVVVDVSHEDPEVKFNWYVDGVEVHNAKTKPREEQYNSTYRVVSVLTVLHQDWLNGKEYKCKVSNKALPAPIEKTISKAKGQPREPQVYTLPPSREEMTKNQVSLTCLVKGFYPSDIAVEWESNGQPENNYKTTPPVLDSDGSFFLYSKLTVDKSRWQQGNVFSCSVMHEALHNHYTQKSLSLSPG
On to B2, for which the values for the MFI in test [1] and in test [2] were 252000 MFI and 132000 MFI, respectively.

B3: variant ICOSL IgV-Fc fusion N52A/N57F/Q100S (Fc fusion)
chain: DTQEKEVRAMVGSDVELSCACPEGSRFDLNDVYVYWQTSESKTVVTYHIPQASSLEFVDSRYRNRALMSPAGMLRGDFSLRLFNVTPQDEQKFHCLVLSSSLGFQEVLSVEVTLHVAANFSVGSGGGGSEPKSSDKTHTCPPCPAPEAEGAPSVFLFPPKPKDTLMISRTPEVTCVVVDVSHEDPEVKFNWYVDGVEVHNAKTKPREEQYNSTYRVVSVLTVLHQDWLNGKEYKCKVSNKALPAPIEKTISKAKGQPREPQVYTLPPSREEMTKNQVSLTCLVKGFYPSDIAVEWESNGQPENNYKTTPPVLDSDGSFFLYSKLTVDKSRWQQGNVFSCSVMHEALHNHYTQKSLSLSPG
For B3, the results for the MFI in test [1], in test [2] and in test [3] were 255000 MFI, 157000 MFI and 242000 MFI, respectively. The “MFI ratio to WT (ΔWT)” value in test [1] was 0.77 fold; in test [2], 7 fold; in test [3] it was 1.14 fold.

B4: variant ICOSL IgV-Fc fusion N52H/N57Y/Q100K (Fc fusion)
chain: DTQEKEVRAMVGSDVELSCACPEGSRFDLNDVYVYWQTSESKTVVTYHIPQHSSLEYVDSRYRNRALMSPAGMLRGDFSLRLFNVTPQDEQKFHCLVLSKSLGFQEVLSVEVTLHVAANFSVGSGGGGSEPKSSDKTHTCPPCPAPEAEGAPSVFLFPPKPKDTLMISRTPEVTCVVVDVSHEDPEVKFNWYVDGVEVHNAKTKPREEQYNSTYRVVSVLTVLHQDWLNGKEYKCKVSNKALPAPIEKTISKAKGQPREPQVYTLPPSREEMTKNQVSLTCLVKGFYPSDIAVEWESNGQPENNYKTTPPVLDSDGSFFLYSKLTVDKSRWQQGNVFSCSVMHEALHNHYTQKSLSLSPG
As to B4, the MFI in test [2] came to 142000 MFI; in test [3], 214000 MFI.

B5: variant ICOSL IgV-Fc fusion N52G/Q100A (Fc fusion)
chain: DTQEKEVRAMVGSDVELSCACPEGSRFDLNDVYVYWQTSESKTVVTYHIPQGSSLENVDSRYRNRALMSPAGMLRGDFSLRLFNVTPQDEQKFHCLVLSASLGFQEVLSVEVTLHVAANFSVGSGGGGSEPKSSDKTHTCPPCPAPEAEGAPSVFLFPPKPKDTLMISRTPEVTCVVVDVSHEDPEVKFNWYVDGVEVHNAKTKPREEQYNSTYRVVSVLTVLHQDWLNGKEYKCKVSNKALPAPIEKTISKAKGQPREPQVYTLPPSREEMTKNQVSLTCLVKGFYPSDIAVEWESNGQPENNYKTTPPVLDSDGSFFLYSKLTVDKSRWQQGNVFSCSVMHEALHNHYTQKSLSLSPG
On to B5, for which the MFI in test [2] was determined as 98700 MFI; in test [3], 303000 MFI.
